Drawing on patent publication US20110105394A1 (Novo Nordisk, published 2011), this text covers Potency Luciferase for 4 molecules.

B1: N-alpha-[(S)-4-Carboxy-4-(19-carboxynonadecanoylamino)butyryl]-GluHis-His-[Arg1,His17,Gln21]-pramlintide (peptide)
peptide: {C20 diacid-γGlu}-EHHRCNTATCATQRLANFLHHSSQNFGPILPPTNVGSNTY-NH2
modifications: disulfide 5-10
SMILES: CC[C@H](C)[C@H](NC(=O)[C@@H]1CCCN1C(=O)CNC(=O)[C@H](Cc1ccccc1)NC(=O)[C@H](CC(N)=O)NC(=O)[C@H](CCC(N)=O)NC(=O)[C@H](CO)NC(=O)[C@H](CO)NC(=O)[C@H](Cc1c[nH]cn1)NC(=O)[C@H](Cc1c[nH]cn1)NC(=O)[C@H](CC(C)C)NC(=O)[C@H](Cc1ccccc1)NC(=O)[C@H](CC(N)=O)NC(=O)[C@H](C)NC(=O)[C@H](CC(C)C)NC(=O)[C@H](CCCNC(=N)N)NC(=O)[C@H](CCC(N)=O)NC(=O)[C@@H](NC(=O)[C@H](C)NC(=O)[C@@H]1CSSC[C@H](NC(=O)[C@H](CCCNC(=N)N)NC(=O)[C@H](Cc2c[nH]cn2)NC(=O)[C@H](Cc2c[nH]cn2)NC(=O)[C@H](CCC(=O)O)NC(=O)CC[C@H](NC(=O)CCCCCCCCCCCCCCCCCCC(=O)O)C(=O)O)C(=O)N[C@@H](CC(N)=O)C(=O)N[C@@H]([C@@H](C)O)C(=O)N[C@@H](C)C(=O)N[C@@H]([C@@H](C)O)C(=O)N1)[C@@H](C)O)C(=O)N[C@@H](CC(C)C)C(=O)N1CCC[C@H]1C(=O)N1CCC[C@H]1C(=O)N[C@H](C(=O)N[C@@H](CC(N)=O)C(=O)N[C@H](C(=O)NCC(=O)N[C@@H](CO)C(=O)N[C@@H](CC(N)=O)C(=O)N[C@H](C(=O)N[C@@H](Cc1ccc(O)cc1)C(N)=O)[C@@H](C)O)C(C)C)[C@@H](C)O
B2: N-alpha-[(S)-4-Carboxy-4-(19-carboxynonadecanoylamino)butyryl]-Glu-His-His-[Arg1,Arg17,Gln21]-pramlintide (peptide)
peptide: {C20 diacid-γGlu}-EHHRCNTATCATQRLANFLRHSSQNFGPILPPTNVGSNTY-NH2
modifications: disulfide 5-10
SMILES: CC[C@H](C)[C@H](NC(=O)[C@@H]1CCCN1C(=O)CNC(=O)[C@H](Cc1ccccc1)NC(=O)[C@H](CC(N)=O)NC(=O)[C@H](CCC(N)=O)NC(=O)[C@H](CO)NC(=O)[C@H](CO)NC(=O)[C@H](Cc1c[nH]cn1)NC(=O)[C@H](CCCNC(=N)N)NC(=O)[C@H](CC(C)C)NC(=O)[C@H](Cc1ccccc1)NC(=O)[C@H](CC(N)=O)NC(=O)[C@H](C)NC(=O)[C@H](CC(C)C)NC(=O)[C@H](CCCNC(=N)N)NC(=O)[C@H](CCC(N)=O)NC(=O)[C@@H](NC(=O)[C@H](C)NC(=O)[C@@H]1CSSC[C@H](NC(=O)[C@H](CCCNC(=N)N)NC(=O)[C@H](Cc2c[nH]cn2)NC(=O)[C@H](Cc2c[nH]cn2)NC(=O)[C@H](CCC(=O)O)NC(=O)CC[C@H](NC(=O)CCCCCCCCCCCCCCCCCCC(=O)O)C(=O)O)C(=O)N[C@@H](CC(N)=O)C(=O)N[C@@H]([C@@H](C)O)C(=O)N[C@@H](C)C(=O)N[C@@H]([C@@H](C)O)C(=O)N1)[C@@H](C)O)C(=O)N[C@@H](CC(C)C)C(=O)N1CCC[C@H]1C(=O)N1CCC[C@H]1C(=O)N[C@H](C(=O)N[C@@H](CC(N)=O)C(=O)N[C@H](C(=O)NCC(=O)N[C@@H](CO)C(=O)N[C@@H](CC(N)=O)C(=O)N[C@H](C(=O)N[C@@H](Cc1ccc(O)cc1)C(N)=O)[C@@H](C)O)C(C)C)[C@@H](C)O
B3: N-alpha-[(S)-4-Carboxy-4-(19-carboxynonadecanoylamino)butyryl]-Glu-His-His-[Arg1,His17]-pramlintide (peptide)
peptide: {C20 diacid-γGlu}-EHHRCNTATCATQRLANFLHHSSNNFGPILPPTNVGSNTY-NH2
modifications: disulfide 5-10
SMILES: CC[C@H](C)[C@H](NC(=O)[C@@H]1CCCN1C(=O)CNC(=O)[C@H](Cc1ccccc1)NC(=O)[C@H](CC(N)=O)NC(=O)[C@H](CC(N)=O)NC(=O)[C@H](CO)NC(=O)[C@H](CO)NC(=O)[C@H](Cc1c[nH]cn1)NC(=O)[C@H](Cc1c[nH]cn1)NC(=O)[C@H](CC(C)C)NC(=O)[C@H](Cc1ccccc1)NC(=O)[C@H](CC(N)=O)NC(=O)[C@H](C)NC(=O)[C@H](CC(C)C)NC(=O)[C@H](CCCNC(=N)N)NC(=O)[C@H](CCC(N)=O)NC(=O)[C@@H](NC(=O)[C@H](C)NC(=O)[C@@H]1CSSC[C@H](NC(=O)[C@H](CCCNC(=N)N)NC(=O)[C@H](Cc2c[nH]cn2)NC(=O)[C@H](Cc2c[nH]cn2)NC(=O)[C@H](CCC(=O)O)NC(=O)CC[C@H](NC(=O)CCCCCCCCCCCCCCCCCCC(=O)O)C(=O)O)C(=O)N[C@@H](CC(N)=O)C(=O)N[C@@H]([C@@H](C)O)C(=O)N[C@@H](C)C(=O)N[C@@H]([C@@H](C)O)C(=O)N1)[C@@H](C)O)C(=O)N[C@@H](CC(C)C)C(=O)N1CCC[C@H]1C(=O)N1CCC[C@H]1C(=O)N[C@H](C(=O)N[C@@H](CC(N)=O)C(=O)N[C@H](C(=O)NCC(=O)N[C@@H](CO)C(=O)N[C@@H](CC(N)=O)C(=O)N[C@H](C(=O)N[C@@H](Cc1ccc(O)cc1)C(N)=O)[C@@H](C)O)C(C)C)[C@@H](C)O
B4: N-alpha-[(S)-4-Carboxy-4-(19-carboxynonadecanoylamino)butyryl]-Glu-His-Arg-[His1,His17]-pramlintide (peptide)
peptide: {C20 diacid-γGlu}-EHRHCNTATCATQRLANFLHHSSNNFGPILPPTNVGSNTY-NH2
modifications: disulfide 5-10
SMILES: CC[C@H](C)[C@H](NC(=O)[C@@H]1CCCN1C(=O)CNC(=O)[C@H](Cc1ccccc1)NC(=O)[C@H](CC(N)=O)NC(=O)[C@H](CC(N)=O)NC(=O)[C@H](CO)NC(=O)[C@H](CO)NC(=O)[C@H](Cc1c[nH]cn1)NC(=O)[C@H](Cc1c[nH]cn1)NC(=O)[C@H](CC(C)C)NC(=O)[C@H](Cc1ccccc1)NC(=O)[C@H](CC(N)=O)NC(=O)[C@H](C)NC(=O)[C@H](CC(C)C)NC(=O)[C@H](CCCNC(=N)N)NC(=O)[C@H](CCC(N)=O)NC(=O)[C@@H](NC(=O)[C@H](C)NC(=O)[C@@H]1CSSC[C@H](NC(=O)[C@H](Cc2c[nH]cn2)NC(=O)[C@H](CCCNC(=N)N)NC(=O)[C@H](Cc2c[nH]cn2)NC(=O)[C@H](CCC(=O)O)NC(=O)CC[C@H](NC(=O)CCCCCCCCCCCCCCCCCCC(=O)O)C(=O)O)C(=O)N[C@@H](CC(N)=O)C(=O)N[C@@H]([C@@H](C)O)C(=O)N[C@@H](C)C(=O)N[C@@H]([C@@H](C)O)C(=O)N1)[C@@H](C)O)C(=O)N[C@@H](CC(C)C)C(=O)N1CCC[C@H]1C(=O)N1CCC[C@H]1C(=O)N[C@H](C(=O)N[C@@H](CC(N)=O)C(=O)N[C@H](C(=O)NCC(=O)N[C@@H](CO)C(=O)N[C@@H](CC(N)=O)C(=O)N[C@H](C(=O)N[C@@H](Cc1ccc(O)cc1)C(N)=O)[C@@H](C)O)C(C)C)[C@@H](C)O

*1 amine or outer side, *2 acyl side, *3 side chain or, on linkers, in order; H or OH if unused. Bridges are numbered along the chain shown (N, C = ends). The star is where a group is joined. C20 diacid = O=C(O)CCCCCCCCCCCCCCCCCCC(=O)*; γGlu = O=C(O)[C@H](CCC(=O)[*:2])N[*:1]

The assay has as its target T1, Amylin 3(a) receptor (human calcitonin receptor (CTa) with RAMP-3) (human) (UniProt P30988).
T1 sequence (looked up) 1: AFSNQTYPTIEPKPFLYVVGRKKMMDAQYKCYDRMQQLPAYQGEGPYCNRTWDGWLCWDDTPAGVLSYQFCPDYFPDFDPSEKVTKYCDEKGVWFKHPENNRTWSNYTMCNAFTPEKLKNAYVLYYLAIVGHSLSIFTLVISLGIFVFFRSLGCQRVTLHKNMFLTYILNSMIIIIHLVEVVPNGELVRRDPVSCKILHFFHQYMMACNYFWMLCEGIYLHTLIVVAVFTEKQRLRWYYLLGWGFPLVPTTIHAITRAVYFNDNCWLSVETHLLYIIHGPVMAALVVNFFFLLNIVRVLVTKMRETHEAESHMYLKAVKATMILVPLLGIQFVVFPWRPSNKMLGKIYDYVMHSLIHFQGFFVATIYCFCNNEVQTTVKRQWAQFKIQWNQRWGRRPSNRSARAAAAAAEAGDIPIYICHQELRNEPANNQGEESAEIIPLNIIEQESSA
T1 sequence (looked up) 2: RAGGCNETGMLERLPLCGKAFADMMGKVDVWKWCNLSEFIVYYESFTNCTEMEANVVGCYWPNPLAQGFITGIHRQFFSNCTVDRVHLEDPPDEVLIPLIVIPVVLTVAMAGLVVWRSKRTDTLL
Kind of assay: cell-based or functional assay.
With B1, the Potency Luciferase came out at 100 pM.
Take B2: the Potency Luciferase was 100 pM.
Consider B3, for which the Potency Luciferase came out at 100 pM.
Next, B4: 100 pM.
